In paper PMC5739299 (Molecular Biology of the Cell, 2017):

Molecular target: T1, Alcadein α-FLAG, wild type, dephosphorylated with λPPase (human, UniProt O94985-2 29-971, dephosphorylated with λPPase on the beads)
T1 sequence (looked up): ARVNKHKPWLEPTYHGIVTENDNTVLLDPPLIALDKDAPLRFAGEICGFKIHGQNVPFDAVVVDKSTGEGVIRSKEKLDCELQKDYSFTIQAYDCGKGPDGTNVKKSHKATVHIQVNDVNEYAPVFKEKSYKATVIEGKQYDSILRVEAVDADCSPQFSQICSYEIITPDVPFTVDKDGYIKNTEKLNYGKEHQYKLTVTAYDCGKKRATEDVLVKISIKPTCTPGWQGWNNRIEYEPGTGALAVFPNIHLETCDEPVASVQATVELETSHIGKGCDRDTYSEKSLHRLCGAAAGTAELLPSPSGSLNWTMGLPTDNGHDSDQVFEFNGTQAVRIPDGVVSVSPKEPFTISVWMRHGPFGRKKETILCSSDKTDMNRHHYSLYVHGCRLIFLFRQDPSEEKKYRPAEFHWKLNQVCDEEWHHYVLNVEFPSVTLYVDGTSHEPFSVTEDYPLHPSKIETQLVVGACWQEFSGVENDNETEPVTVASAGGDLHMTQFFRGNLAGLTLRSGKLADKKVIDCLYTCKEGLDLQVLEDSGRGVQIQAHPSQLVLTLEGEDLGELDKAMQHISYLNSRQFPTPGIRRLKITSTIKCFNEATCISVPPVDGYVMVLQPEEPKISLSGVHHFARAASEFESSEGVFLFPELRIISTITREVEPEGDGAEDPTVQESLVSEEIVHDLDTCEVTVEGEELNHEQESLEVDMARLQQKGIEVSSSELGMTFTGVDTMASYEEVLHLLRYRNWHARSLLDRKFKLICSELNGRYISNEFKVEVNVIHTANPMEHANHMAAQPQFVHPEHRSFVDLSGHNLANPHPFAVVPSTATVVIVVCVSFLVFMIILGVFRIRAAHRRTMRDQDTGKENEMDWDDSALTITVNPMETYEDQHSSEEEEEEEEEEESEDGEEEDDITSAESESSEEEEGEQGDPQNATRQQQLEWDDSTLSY
Test: pull-down

recovery of HA-KLC1 relative to Alcα-FLAG without λPPase treatment: ~20%
B1: HA-KLC1 (kinesin light chain 1) (natural protein, UniProt O88447 1-541, looked up)
chain: MYDNMSTMVYIKEEKLENVTQDEIISKTKQVIQGLEALKNEHNSILQSLLETLKCLKKDDESNLVEEKSSMIRKSLEMLELGLSEAQVMMALSNHLNAVESEKQNVRAQVRRLCQENQWLRDELANTQQKLQKSEQSVAQLEEEKKHLEFMNQLKKYDDDISPSEDKDSDSSKEPLDDLFPNDEDEPGQGIQHSDSSAAAARQGYEIPARLRTLHNLVIQYASQGRYEVAVPSCKQALEDLEKTSGHDHPDVATMLNILALVYRDQNKYKDAANLLNDALAIREKTLGRDHPAVAATLNNLAVLYGKRGKYKEAEPLCKRALEIREKVLGKDHPDVAKQLNNLALLCQNQGKYEEVEYYYQRALGIYQTKLGPDRTPNVAKTKNNLASCYLKQGKFKQAETLYKEILTRAHEAEFGSVDDENKPIWMHAEEREECKGKQKDGSAFGEYGGWYKACKVDSPTVTTTLKNLGALYRRQGKFEAAETLEEAAMRSRKQGLDNVHKQRVAEVLNDPESMEKRRSRESLNMDVVKYESGPDGGEEA
